According to US20240166745A1 (Eli Lilly, published 2024):
Substitutions are numbered along the chain they refer to. Blank lines part the entries; values can stand above or below the binder they belong to.

Experiments:
[1] = biological target: PathHunter U2OS PD-1/LAG-3 dimerization cell line (human PD-1 aa 1-199-EA and human LAG-3 aa 1-477-PK) (human); assay: cell-based or functional assay
Cynomolgus LAG-3-ECD [2] = biological target: T1, Cynomolgus LAG-3-ECD (cynomolgus); assay: SPR (Biacore T200), antibody captured on PrismA chip, ECD as analyte, 37° C.
T1 construct: as printed it starts with the N-terminal leader (MWEAQ...) and ends with a His tag; also called Cynomolgus LAG-3 ECD-His
T1 chain: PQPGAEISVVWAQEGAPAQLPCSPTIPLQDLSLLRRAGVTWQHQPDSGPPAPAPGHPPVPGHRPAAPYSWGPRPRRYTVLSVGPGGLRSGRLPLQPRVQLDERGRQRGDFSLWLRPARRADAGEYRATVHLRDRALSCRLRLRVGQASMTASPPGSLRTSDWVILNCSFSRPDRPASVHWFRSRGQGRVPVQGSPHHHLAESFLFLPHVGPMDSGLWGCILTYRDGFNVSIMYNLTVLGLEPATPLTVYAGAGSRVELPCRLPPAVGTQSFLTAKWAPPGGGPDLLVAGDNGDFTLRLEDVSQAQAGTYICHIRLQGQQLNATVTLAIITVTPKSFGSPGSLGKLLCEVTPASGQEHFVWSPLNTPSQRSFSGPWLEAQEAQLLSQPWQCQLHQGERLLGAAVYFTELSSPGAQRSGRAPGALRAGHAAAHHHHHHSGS
Procedure: (§1) A Biacore® T200 (Cytiva, Marlborough, MA) was used to measure the binding kinetics and affinities of the LAG-3 antibody to the LAG-3 soluble extracellular domain (ECD) and the bispecific antibody to soluble LAG-3-ECD and PD-1-ECD (human: Sino Biologicals, Cat #10377-H08H; cynomolgus: Sino Biologicals, Cat #90311-C08H) by surface plasmon resonance. Samples were diluted in HBS-EP+ (10 mM Hepes, 150 mM NaCl, 3 mM EDTA, 0.05% Tween-20, pH 7.6) (Teknova Cat #H8022) with 5 g/L of BSA (Jackson ImmunoResearch Cat #001-000-161) running buffer. PrismA Series S Sensor chip (Cat #29650263) is purchased from Cytiva.
(§2) Binding was evaluated using multi-cycle kinetics by an antibody capture method. Each cycle was performed at either 37° C. or 25° C. at a flow rate of 10 μL/min for antibody capture to the PrismA chip and 100 μL/min for analyte association (with 120 sec contact time) and dissociation (900 sec). Each cycle consisted of the following steps: injection of bispecific antibody at 1 μg/mL in HBS-EP+ targeting Rmax values of 125 RU (LAG-3 arm), 294 RU (PD-1 arm) and 63 RU (LAG-3 antibody) on flow cell, injection of analyte in HBS-EP+(concentration range of 62.5 nM to 0.25 nM by two-fold serial dilution for both human PD-1-ECD-His (SEQ ID NO: 40) and human LAG-3-His (SEQ ID NO: 42) followed by 900-second dissociation phase, and regeneration using 10 μL of 10 mM glycine hydrochloride, pH 1.5 over a 60-second contact time utilizing a 10 μL/min flow rate. All analyte concentrations were determined utilizing monomeric molecular weight (MW) values. Association rates (kₒₙ) and dissociation rates (koff) for LAG-3-ECD and PD-1-ECD were evaluated using double referencing by flow-cell one reference subtraction in addition to 0 nM blank subtraction and fit to “1:1 (Langmuir) binding” model in the BIAevaluation software version 4.1. The dissociation constant (KD) was calculated from the binding kinetics according to the relationship KD=Koff/Kₒₙ. Stoichiometry=[RUₘₐₓ/RUcaptured]/[MWanalyte/MWantibody] where MWAntibodyA is 150 kDa. Values are reported as mean±standard deviation.

Human PD-1 ECD-His [3] = biological target: T2, Human PD-1 ECD-His (human, UniProt Q15116 25-167); assay: SPR (Biacore T200), antibody captured on PrismA chip, ECD as analyte, 25° C.; 25° C.
T2 construct: Soluble analyte in SPR; the entry includes the His tag
T2 sequence (Q15116 other isoform, or with tags, fused parts or gaps): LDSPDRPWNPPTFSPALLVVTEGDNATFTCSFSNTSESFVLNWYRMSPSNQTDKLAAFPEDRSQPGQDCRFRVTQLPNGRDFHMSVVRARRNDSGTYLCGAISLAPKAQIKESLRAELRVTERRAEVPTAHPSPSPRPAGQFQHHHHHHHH
Procedure: as §1
(§3) Binding was evaluated using multi-cycle kinetics by an antibody capture method. […] Each cycle consisted of the following steps: injection of bispecific antibody at 1 μg/mL in HBS-EP+ targeting Rmax values of 125 RU (LAG-3 arm), 294 RU (PD-1 arm) and 63 RU (LAG-3 antibody) on flow cell, injection of analyte in HBS-EP+(concentration range of 62.5 nM to 0.25 nM by two-fold serial dilution for both human PD-1-ECD-His (SEQ ID NO: 40) and human LAG-3-His (SEQ ID NO: 42) followed by 900-second dissociation phase, and regeneration using 10 μL of 10 mM glycine hydrochloride, pH 1.5 over a 60-second contact time utilizing a 10 μL/min flow rate. All analyte concentrations were determined utilizing monomeric molecular weight (MW) values. […]

[4] = biological target: T3, cell membrane-expressed cynomolgus LAG-3/PD-1 (cynomolgus); assay: flow cytometry, labeled antibody on anti-CD3 activated cynomolgus PBMC, CD4 T cells, percent of cells bound (mean +/- SEM, n=3)
T3 construct: whole, on cells; Two separate membrane proteins on the same cells, not a complex; also called Cyno CD4
T3 sequence (P79185 26-458): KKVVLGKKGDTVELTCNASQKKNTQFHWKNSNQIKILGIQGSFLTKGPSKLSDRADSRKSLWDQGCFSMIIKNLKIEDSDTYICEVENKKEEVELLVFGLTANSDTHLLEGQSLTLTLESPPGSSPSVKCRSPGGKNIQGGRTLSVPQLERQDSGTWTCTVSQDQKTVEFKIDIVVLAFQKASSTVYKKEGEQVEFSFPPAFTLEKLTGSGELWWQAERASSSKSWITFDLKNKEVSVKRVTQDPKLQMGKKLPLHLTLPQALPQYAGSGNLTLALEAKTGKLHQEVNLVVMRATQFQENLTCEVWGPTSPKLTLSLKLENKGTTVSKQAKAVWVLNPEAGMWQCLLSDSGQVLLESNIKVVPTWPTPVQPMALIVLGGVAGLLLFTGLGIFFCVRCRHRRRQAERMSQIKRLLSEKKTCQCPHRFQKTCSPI
Procedure: (§4) Cells were incubated with 10-12 point, 3-fold serial dilutions of the respective labeled antibody (Invitrogen #S20026, Invitrogen #C20029), starting at 30 ug/mL, in PBS+2% FCS for 30 minutes at 4° C. and containing the following: CD4 eBioscience #12-0047-42 or Biolegend #344634; CD8 eBioscience #25-0088-42; CD3 eBioscience 56-0038-82 for human cells and BD #557917 for cyno cells; CD33 eBioscience 45-0338-42 for human cells; Live/Dead eBioscience #65-0865-18. After washing thoroughly, cells were processed on a BD Fortessa or Fortessa X20 cytometer, and data were analyzed with Flowjo software (BD Biosciences). Percent of cells bound by the respective antibody is quantified and graphed with Prism (Graphpad, San Diego, CA).

Cynomolgus LAG-3-ECD [5] = biological target: T1, Cynomolgus LAG-3-ECD; assay: SPR (Biacore T200), antibody captured on PrismA chip, ECD as analyte, 25° C.
Procedure: as §1, §2

[6] = biological target: T4, cell membrane-expressed human LAG-3/PD-1 (human, UniProt P18627 23-525; Q15116 25-288); assay: flow cytometry, labeled antibody on anti-CD3 activated human PBMC, CD4 T cells, percent of cells bound (mean +/- SEM, n=3)
T4 construct: also called Human CD4
T4 sequence (Q15116 25-288 limits assumed, one chain of several): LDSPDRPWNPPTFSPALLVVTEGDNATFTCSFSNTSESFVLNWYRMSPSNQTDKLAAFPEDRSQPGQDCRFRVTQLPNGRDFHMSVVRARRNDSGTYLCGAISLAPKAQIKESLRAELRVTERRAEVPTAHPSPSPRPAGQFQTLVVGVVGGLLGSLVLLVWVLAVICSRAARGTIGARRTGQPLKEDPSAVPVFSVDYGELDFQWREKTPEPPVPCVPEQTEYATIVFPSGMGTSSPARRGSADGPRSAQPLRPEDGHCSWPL
Procedure: as §4

Human PD-1 ECD-His [7] = biological target: T2, Human PD-1 ECD-His; assay: SPR (Biacore T200), antibody captured on PrismA chip, ECD as analyte; temperature unclear: the 37° C. label is printed only at r14, by the order of Table 3a probably 37° C.; 37° C. (label printed late, at r14)
Procedure: as §1, §3

Sequence of PathHunter U2OS PD-1/LAG-3 dimerization cell line (human PD-1 aa 1-199-EA and human LAG-3 aa 1-477-PK) (human) (Q15116 1-199, chain 1 of 2): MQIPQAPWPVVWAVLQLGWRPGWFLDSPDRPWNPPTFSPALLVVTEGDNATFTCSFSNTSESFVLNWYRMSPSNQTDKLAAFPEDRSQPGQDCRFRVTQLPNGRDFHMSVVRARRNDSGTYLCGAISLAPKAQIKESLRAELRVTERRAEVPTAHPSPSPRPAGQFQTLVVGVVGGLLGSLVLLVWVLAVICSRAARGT
Sequence of PathHunter U2OS PD-1/LAG-3 dimerization cell line (human PD-1 aa 1-199-EA and human LAG-3 aa 1-477-PK) (human) (P18627 1-477, chain 2 of 2, further chain): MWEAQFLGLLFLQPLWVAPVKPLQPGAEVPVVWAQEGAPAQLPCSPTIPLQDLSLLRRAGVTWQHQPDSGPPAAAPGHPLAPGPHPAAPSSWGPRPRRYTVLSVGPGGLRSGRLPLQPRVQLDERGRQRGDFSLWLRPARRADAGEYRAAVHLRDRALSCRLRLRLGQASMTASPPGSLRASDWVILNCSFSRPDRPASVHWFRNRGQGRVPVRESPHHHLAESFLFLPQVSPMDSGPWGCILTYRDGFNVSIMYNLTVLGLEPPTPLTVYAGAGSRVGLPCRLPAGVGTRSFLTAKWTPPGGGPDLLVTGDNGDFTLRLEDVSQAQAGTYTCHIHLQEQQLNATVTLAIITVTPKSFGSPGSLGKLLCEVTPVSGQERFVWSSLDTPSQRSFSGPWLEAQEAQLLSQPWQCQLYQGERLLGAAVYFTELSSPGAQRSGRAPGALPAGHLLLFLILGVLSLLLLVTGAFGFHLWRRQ

EC50 for induction of PD-1 and LAG-3 dimerization (enzyme fragment complementation, luminescence) [1]: 2.97 nM
Kd (Cynomolgus LAG-3-ECD [2]): 0.51 nM
koff (Cynomolgus LAG-3-ECD [2]): 0.01 s⁻¹
kon (Cynomolgus LAG-3-ECD [2]): 2e+07 M⁻¹ s⁻¹
kon (Human PD-1 ECD-His [3]): 750000 M⁻¹ s⁻¹
EC50 [4]: 0.0293 µg/mL
Kd (Cynomolgus LAG-3-ECD [5]): 0.031 nM
koff (Cynomolgus LAG-3-ECD [5]): 0.0017 s⁻¹
kon (Cynomolgus LAG-3-ECD [5]): 5.4e+07 M⁻¹ s⁻¹
EC50 [6]: 0.0357 µg/mL
B1: Antibody A (bispecific antibody, human IgG1, kappa, lambda)
heavy 1: not shown
light 1: DIVMTQTPLSLPVTPGEPASISCRSSQSLLDSAEGSTYLDWFLRKPGDSPQLLIYTLSYRASGVPDRFSGSGSGTDFTLKISRVEAEDVGVYYCMQRVEFPYTFGQGTKVEIKRTVAAPSVFIFPPSKEQLKSGTASVVCLLNNFYPREAKVQWKVDNALQSGNSQESVTEQDSKDSTYSLSSTLTLSKADYEKHKVYACEVTHQGLSSPVTKSFNRGEC
heavy 2: QVQLVQSGAEVKKPGASVKVSCKVSGYSLSKYDMSWVRKAPGKGLEWMGIIYTSGYTDYAQEFQGRVTMTEDTSTDTAYMELSSLRSEDTAVYYCATGNPYYTNGFNSWGQGTLVTVSSASTKGPSVFPLAPSSKSTSGGTAALGCLVKDYFPEPVTVSWNSGALTSGVATGPAVLQSSGLYSLSSVVTVPSSSLGTQTYICNVNHKPSNTKVDKRVEPKSCDKTHTCPPCPAPELLGGPSVFLFPPKPKDTLMISRTPEVTCVVVDVSHEDPEVKFNWYVDGVEVHNAKTKPREEQYNSTYRVVSVLTVLHQDWLNGKEYKCKVSNKALPAPIEKTISKAKGQPREPQVYTLPPSREEMTDNQVSLTCLVKGFYPSDIAVEWESNGQPENNYKTTPPVLMSDGSFFLASKLTVDKSRWQQGNVFSCSVMHEALHNHYTQKSLSLSPGK
light 2: RIQMTQSPSSLSASVGDRVTITCQASQSPNNLLAWYQDKPGKAPKLLIYGASDLPSGVPSRFSGSGSGTDFTLTISSLQPEDFATYYCQNNYYVGPVSYAFGGGTKVEIKGQPKAAPSVTLFPPSSEELQANKATLVCYISDFYPGAVTVAWKADSSPVKAGVETTTPSKQSNNKYAAWSYLSLTPEQWKSHRSYSCQVTHEGSTVEKTVAPTEC
notes: IgG-like bispecific with one LAG-3 arm and one PD-1 arm; also called human LAG-3/human PD-1 dual agonist bispecific antibody

EC50 for induction of PD-1 and LAG-3 dimerization (enzyme fragment complementation, luminescence) [1]: 2.47 nM
Kd (Cynomolgus LAG-3-ECD [2]): 0.48 nM
koff (Cynomolgus LAG-3-ECD [2]): 0.0098 s⁻¹
kon (Cynomolgus LAG-3-ECD [2]): 2e+07 M⁻¹ s⁻¹
EC50 [4]: 0.0337 µg/mL
Kd (Cynomolgus LAG-3-ECD [5]): 0.031 nM
koff (Cynomolgus LAG-3-ECD [5]): 0.0017 s⁻¹
kon (Cynomolgus LAG-3-ECD [5]): 5.5e+07 M⁻¹ s⁻¹
kon (Human PD-1 ECD-His [7]): 2.4e+06 M⁻¹ s⁻¹
EC50 [6]: 0.0423 µg/mL
B2: Antibody B (bispecific antibody, human IgG1, kappa, lambda)
heavy 1: not shown
light 1: B1 light 1
heavy 2: B1 heavy 2 with K324A
light 2: B1 light 2
notes: also called human LAG-3/human PD-1 dual agonist bispecific antibody
